From patent US20250163186A1 (PHYLAXIS BIOSCIENCE, published 2025)
Positions count from the first letter of the chain named.

B1: 6G9 (VHH)
VHH: EVQLLESGGGEVQPGGSLRLSCVASGLTFSAYNMGWLRQAPGKEREFVGLSGSSSTSTYYAESVKGRFTISRDNAKNTVYLQMTSLRAEDTAVYYCAARRLLSTYWSDRSWDFWGQGTLVTVEP
notes: also called hzB10v40 VHH, CDR1 site 6 S to A
B2: 8G10 (VHH)
VHH: B1 VHH with A31S, N33S
notes: also called hzB10v40 VHH, CDR1 site 8 N to S
B3: 9E8 (VHH)
VHH: B1 VHH with A31S, M34L
notes: also called hzB10v40 VHH, CDR1 site 9 M to L
B4: 9F1 (VHH)
VHH: B1 VHH with A31S, M34S
notes: also called hzB10v40 VHH, CDR1 site 9 M to S
B5: 9G9 (VHH)
VHH: B1 VHH with A31S, M34T
notes: also called hzB10v40 VHH, CDR1 site 9 M to T
B6: 28H1 (VHH)
VHH: B1 VHH with A31S, A97S
B7: 35G3 (VHH)
VHH: B1 VHH with A31S, T104R
B8: 6H1 (VHH)
VHH: B1 VHH with A31P
notes: also called hzB10v40 VHH, CDR1 site 6 S to P
B9: 44A11 (VHH)
VHH: B1 VHH with A31S, F113K
B10: 39C11 (VHH)
VHH: B1 VHH with A31S, D108M
B11: 39E11 (VHH)
VHH: B1 VHH with A31S, D108H
B12: 32F11 (VHH)
VHH: B1 VHH with A31S, L101R
B13: 10E3 (VHH)
VHH: B1 VHH with A31S, G35S
notes: also called hzB10v40 VHH, CDR1 site 10 G to S
B14: 9D1 (VHH)
VHH: B1 VHH with A31S, M34I
notes: also called hzB10v40 VHH, CDR1 site 9 M to I
B15: 10G10 (VHH)
VHH: B1 VHH with A31S, G35A
notes: also called hzB10v40 VHH, CDR1 site 10 G to A
B16: 33-2C5 (VHH)
VHH: B1 VHH with A31S, L102H
B17: 9B1 (VHH)
VHH: B1 VHH with A31S, M34V
notes: also called hzB10v40 VHH, CDR1 site 9 M to V
B18: 8H11 (VHH)
VHH: B1 VHH with A31S, N33R
notes: also called hzB10v40 VHH, CDR1 site 8 N to R
B19: 44C1 (VHH)
VHH: B1 VHH with A31S, F113M
B20: 9H9 (VHH)
VHH: B1 VHH with A31S, M34F
notes: also called hzB10v40 VHH, CDR1 site 9 M to F
B21: 33-2A2 (VHH)
VHH: B1 VHH with A31S, L102K
B22: 33-2C4 (VHH)
VHH: B1 VHH with A31S, L102F
B23: 8F11 (VHH)
VHH: B1 VHH with A31S, N33T
notes: also called hzB10v40 VHH, CDR1 site 8 N to T
B24: hzB10v14-NNT (Fc fusion)
VHH-Fc: EVQLLESGGGEVQPGGSLRLSCVASGLTFSSYNMGWLRQAPGKEREFVGLSGSSSTSTYYADSVKGRFTISRDNSKNTVYLQMNSLKPEDTAVYYCAARRLLSTYWSDRSWDFWGQGTQVTVEPGGPSVFLFPPKPKDTLMISRTPEVTCVVVDVSHEDPEVKFNWYVDGVEVHNAKTKPREEQYNSTYRVVSVLTVLHQDWLNGKEYKCKVSNKALPAPIEKTISKAKGQPREPQVYTLPPSRDELTKNQVNLTCLVKGFYPSDIAVEWESNGQPENNYKTTPPVLDSDGSFFLNSTLTVDKSRWQQGNVFSCSVMHEALHNHYTQKSLSLSPGK
notes: monomeric
B25: hzB10v15-NNT (Fc fusion)
VHH-Fc: B24 VHH-Fc with L37V, G49S
notes: monomeric
B26: hzB10v16-NNT (Fc fusion)
VHH-Fc: B24 VHH-Fc with D62E
notes: monomeric
B27: hzB10v17-NNT (Fc fusion)
VHH-Fc: B24 VHH-Fc with S63A
notes: monomeric
B28: hzB10v20-NNT (Fc fusion)
VHH-Fc: B24 VHH-Fc with V79L
notes: monomeric
B29: hzB10v18-NNT (Fc fusion)
VHH-Fc: B24 VHH-Fc with S63T
notes: monomeric
B30: hzB10v4-NNT (Fc fusion)
VHH-Fc: EVQLVQSGGELVQAGGSLRLSCVASGLTFSSYNMGWLRQAPGKEREFVGMSGSSSTSTYYAESVKGRFTISRDNAKNTLYLQMSSLRAEDTAVYYCAARRMLSTYWSDRSWDFWGQGTQVTVKPGGPSVFLFPPKPKDTLMISRTPEVTCVVVDVSHEDPEVKFNWYVDGVEVHNAKTKPREEQYNSTYRVVSVLTVLHQDWLNGKEYKCKVSNKALPAPIEKTISKAKGQPREPQVYTLPPSRDELTKNQVNLTCLVKGFYPSDIAVEWESNGQPENNYKTTPPVLDSDGSFFLNSTLTVDKSRWQQGNVFSCSVMHEALHNHYTQKSLSLSPGK
notes: monomeric
B31: hzB10v7-NNT (Fc fusion)
VHH-Fc: B24 VHH-Fc with L5V, E6Q, G10E, E11L, P14A, L101M, E123K
notes: monomeric
B32: hzB10v1-NNT (Fc fusion)
VHH-Fc: B24 VHH-Fc with E11L, L50M, L101M, E123K
notes: monomeric
B33: hzB10v6-NNT (Fc fusion)
VHH-Fc: B30 VHH-Fc with E62D, A75S, L79V, S84N, R87K, A88P, K123R
notes: monomeric
B34: hzB10v5-NNT (Fc fusion)
VHH-Fc: B24 VHH-Fc with L5V, E6Q, G10E, E11L, P14A, L50M, L101M
notes: monomeric

Key:
human IgE = molecular target: T1, human IgE (human, UniProt P01854 1-428); assay: ELISA, clone lysate on IgE-coated plate
T1 construct: written under the same molecule; also called IgE (Abcam ab65866); soluble IgE
Source text: Each amino acid in CDR1 (SEQ ID NO:3), CDR2 (SEQ ID NO:68), and CDR3 (SEQ ID NO:74) was randomly replaced such that the 20 natural amino acids would likely all have been sampled at every position. The expression vector for the VHH containing the mutagenized CDRs was then transfected into E. coli, and at least 96 clones were randomly chosen for each position mutated in each CDR. This gives likely coverage of all potential mutations at each position since the probability to get any given amino acid at that position is 5%. […] The heat maps represent the relative binding for each clone determined by the range of OD values from the ELISA background to WT CDR binding (FIGS. 16A-16C). Site numbering for each residue tested is indicated by the inset tables in FIGS. 16A-16C.

[1] = molecular target: T2, CH2-4 constant domains of human IgE linked to a transmembrane protein, on 293 cells (human, UniProt P01854-1 104-428); assay: flow cytometry, 293 cells expressing human IgE CH2-4
T2 construct: domain: CH2-4 constant domains; also called human IgE-expressing 293 cells
Experimental: First, 25 μg of DNA was added to Opti-MEM Reduced Serum Medium (Gibco) mixed with 75 μL of 40 kDa Polyethylenimine (PEI) for a final concentration of 1 μg DNA and 2.5 μg PEI per mL of culture volume. The plasmid DNA was allowed to pre-complex with PEI for 15 minutes before transferring the mixture to 25 mL of 293 cells in a shake flask at a density of 2×10⁶ cells/mL. […] Next, 50 μL of cells were transferred to wells of a round-bottom 96-well assay plate for a total of 50,000 293 cells per well. In a separate 96-well plate, monomeric VHH-hIgG1-Fc fusion proteins were titrated 1:5 in a 8-point dilution series starting at 1 μM in FACS Buffer with the 8th point containing no antibody. 50 μL from each antibody dilution was added to wells containing 50 μL of FACS Buffer with transfected 293 cells which produced a 2-fold dilution of the antibody concentrations from the dilution series resulting in a 500 nM final, starting concentration of the test article titration. The test articles and 293 cells were incubated together at 4° C. for 30 minutes. Next, the 96-well plates were centrifuged at 400×g for 5 minutes and the FACS buffer containing unbound antibody was decanted. Cells were washed 1× with 150 μL 4° C. FACS Buffer. […] The cells were incubated with the fluorophore conjugated detection antibody at 4° C. for 20 minutes. 293 cells were then centrifuged and washed once as described above. Cell pellets were resuspended in 30 μL FACS Buffer and analyzed on an iQue Screener Plus flow cytometer (Sartorius, IntelliCyt) with a 1 second sip time and 1 second void time. Mean fluorescent intensity was calculated using iQue onboard software gating on GFP+ or citrine+ cells.

T2 sequence (P01854 other isoform, or with tags, fused parts or gaps): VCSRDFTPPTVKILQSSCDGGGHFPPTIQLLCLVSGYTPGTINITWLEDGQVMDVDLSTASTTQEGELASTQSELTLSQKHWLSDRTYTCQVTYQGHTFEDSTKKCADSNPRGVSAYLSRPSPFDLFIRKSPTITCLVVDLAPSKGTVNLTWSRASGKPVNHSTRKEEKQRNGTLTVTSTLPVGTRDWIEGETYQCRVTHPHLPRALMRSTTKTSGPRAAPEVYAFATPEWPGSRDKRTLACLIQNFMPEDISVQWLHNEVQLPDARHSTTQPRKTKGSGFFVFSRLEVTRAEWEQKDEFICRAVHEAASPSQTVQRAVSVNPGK
T1 sequence (P01854 other isoform, or with tags, fused parts or gaps limits assumed, form in doubt): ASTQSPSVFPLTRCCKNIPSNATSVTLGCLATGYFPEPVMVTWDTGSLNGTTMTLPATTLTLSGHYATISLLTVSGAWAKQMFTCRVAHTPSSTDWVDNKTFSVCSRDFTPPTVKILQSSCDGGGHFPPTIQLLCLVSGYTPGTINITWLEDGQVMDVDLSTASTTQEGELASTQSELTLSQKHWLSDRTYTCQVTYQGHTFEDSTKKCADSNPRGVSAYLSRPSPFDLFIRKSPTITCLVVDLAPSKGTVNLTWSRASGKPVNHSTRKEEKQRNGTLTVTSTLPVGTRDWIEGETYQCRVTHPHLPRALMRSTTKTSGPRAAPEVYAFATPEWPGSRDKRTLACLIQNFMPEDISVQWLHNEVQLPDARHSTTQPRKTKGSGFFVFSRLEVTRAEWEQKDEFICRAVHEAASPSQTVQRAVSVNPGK

| Binder | Confirm OD450 Duplicate1 (human IgE) | Confirm OD450 Duplicate2 (human IgE) | R1 Screening OD450 (human IgE) | Bmax [1] [MFI] | Kd [1] [nM] |
| --- | --- | --- | --- | --- | --- |
| B1 | 0.556 | 0.512 | 0.875 | – | – |
| B2 | 0.534 | 0.552 | 0.917 | – | – |
| B3 | 0.522 | 0.539 | 0.897 | – | – |
| B4 | 0.498 | 0.467 | 0.921 | – | – |
| B5 | 0.535 | 0.524 | 0.886 | – | – |
| B6 | 0.471 | 0.492 | 0.927 | – | – |
| B7 | 0.593 | 0.612 | 1.07 | – | – |
| B8 | 0.487 | 0.53 | 0.908 | – | – |
| B9 | 0.661 | 0.654 | 1.14 | – | – |
| B10 | 0.562 | 0.585 | 1 | – | – |
| B11 | 0.55 | 0.534 | 1.01 | – | – |
| B12 | 0.557 | 0.557 | 0.924 | – | – |
| B13 | 0.508 | 0.494 | 0.846 | – | – |
| B14 | 0.435 | 0.442 | 0.905 | – | – |
| B15 | 0.484 | 0.479 | 0.966 | – | – |
| B16 | 0.525 | 0.573 | 1.01 | – | – |
| B17 | 0.452 | 0.454 | 0.879 | – | – |

| Binder | Confirm OD450 Duplicate1 (human IgE) | Confirm OD450 Duplicate2 (human IgE) | R1 Screening OD450 (human IgE) | Bmax [1] [MFI] | Kd [1] [nM] |
| --- | --- | --- | --- | --- | --- |
| B18 | 0.571 | 0.568 | 0.97 | – | – |
| B19 | 0.556 | 0.537 | 1.06 | – | – |
| B20 | 0.49 | 0.5 | 0.88 | – | – |
| B21 | 0.557 | 0.564 | 1.01 | – | – |
| B22 | 0.514 | 0.523 | 1 | – | – |
| B23 | 0.52 | 0.559 | 0.922 | – | – |
| B24 | – | – | – | 1.95e+06 | 2.11 |
| B25 | – | – | – | 1.89e+06 | 10 |
| B26 | – | – | – | 2.23e+06 | 1.89 |
| B27 | – | – | – | 2.07e+06 | 1.7 |
| B28 | – | – | – | 2.24e+06 | 6.01 |
| B29 | – | – | – | 1.95e+06 | 5.07 |
| B30 | – | – | – | 3.89e+06 | 75 |
| B31 | – | – | – | 3.34e+06 | 3.71 |
| B32 | – | – | – | – | 1.37 |
| B33 | – | – | – | – | 1.95 |
| B34 | – | – | – | – | 2.5 |
